The values that follow come from paper PMC3835729.

Substrate in this series: Nc1ncnc2c1ncn2[C@@H]1O[C@H](COP(=O)(O)OC(=O)CCc2c[nH]c3ccccc23)[C@@H](O)[C@H]1O
In words: purified protein. The conditions noted are these: 20 mM HEPES, 1 mM MgCl2, pH 7.2, 25 °C.

B1: human histidine triad nucleotide binding protein 1 (hHint1) (Homo sapiens; H114A) (protein)
chain: ADEIAKAQVARPGGDTIFGKIIRKEIPAKIIFEDDRCLAFHDISPQAPTHFLVIPKKHISQISVAEDDDESLLGHLMIVGKKCAADLGLNKGYRMVVNEGSDGGQSVYHVHLAVLGGRQMHWPPG
One may read the Km as the concentration of substrate that gives half-maximal velocity. What is called kcat is the number of substrate molecules converted per active site and unit of time at saturation. Usually kcat/Km stands for the turnover number divided by the Michaelis constant. As to B1, the Michaelis-Menten constant (Km) turned out to be 0.12 ± 0.01 µM, the kcat was determined as 0.69 ± 0.05 s⁻¹ and the kcat/Km was 6e+06 ± 1e+06 M⁻¹ s⁻¹.
